B1: Pistol ribozyme (parent)
chain: GGGUCGUUGUUCCAUAAUCGCGUGGAUAUGGCACGCAAGUUUCUACCGGGCACCGUAAAUGUCCGACUGGAGCCGUUCGGGCGGCUAUAAACAGACCUCAGGCCCGAAGCGUGGCGGCACCUGCCGCCGGUGGUAAAAAAGAUCGGAAGAGCACACGUCU

Variants of: B1
Assay: aptazyme ON/OFF ratio, guanine; higher = stronger switching; co-transcriptional cleavage with and without guanine

| Variant | aptazyme ON/OFF ratio |
| --- | --- |
| U7G G9C U10G C12A C13A | 1.23 |
| U7G G9C U10C U11G C12A C13U | 1.08 |
| U7G G9C U10C U11G C12A C13G | 1.13 |
| U7G G9C U10C U11G C12A C13A | 1.09 |
| U7G G9A U10G U11G C13A | 1.05 |
| U7G G9A U10G U11G C13G | 1.09 |
| U7G G9A U10G U11G C13U | 1.14 |
| U7G G9C U10C C13U | 1.47 |
| U7G G9C U10C C13G | 1.09 |
| U7G G9C U10C C13A | 1.14 |
| U7G G9C U10C C12U C13G | 1.21 |
| U7G G9C U10C C12U C13U | 1.34 |
| U7G G9C U10C C12U C13A | 1.21 |
| U7G G9C U10A U11C C12G C13G | 1.06 |
| U7G G9C U10A U11C C12G C13U | 1.29 |
| U7G G9C U10A U11C C12G C13A | 1.16 |
| U7G G9C U10C U11A C12A C13G | 1.15 |
| U7G G9C U10C U11A C12A C13U | 1.25 |
| U7G G9C U10C U11A C12A C13A | 1.21 |
| U7G G9C U10C U11G | 1.18 |
| U7G G9C U10C U11C | 1.17 |
| U7G G9C U10C U11A | 1.65 |
| U7G G9A U10C U11G C12U | 1.19 |
| U7G G9A U10C U11G C12G | 1.15 |

| Variant | aptazyme ON/OFF ratio |
| --- | --- |
| U7G G9A U10C U11G C12A | 1.09 |
| U7G G9C U10A U11C | 1.17 |
| U7G G9C U10A U11G | 3.08 |
| U7G G9C U10A U11A | 2.95 |
| U7G G9C U10A U11C C12G | 1.27 |
| U7G G9C U10A U11C C12A | 1.76 |
| U7G G9C U10A U11C C12U | 1.46 |
| U7G G9A U11C C12A C13G | 1.14 |
| U7G G9A U11C C12A C13U | 1.26 |
| U7G G9A U11C C12A C13A | 1.1 |
| U7G G9C U10C C12G C13G | 1.09 |
| U7G G9C U10C C12G C13A | 1.31 |
| U7G G9C U10C C12G C13U | 1.23 |
| U7G G9C U10G U11C C12A | 1.69 |
| U7G G9C U10G U11C C12G | 1.32 |
| U7G G9C U10G U11C C12U | 1.28 |
| U7G G9C U10A U11A C12U | 1.65 |
| U7G G9C U10A U11A C12G | 1.7 |
| U7G G9C U10A U11A C12A | 1.46 |
| U7G G9A U11G C12G C13A | 1.07 |
| U7G G9A U11G C12G C13U | 1.16 |
| U7G G9A U11G C12G C13G | 1.07 |
| U7G G9C C12U C13G | 1.18 |
| U7G G9C C12U C13U | 1.33 |

| Variant | aptazyme ON/OFF ratio |
| --- | --- |
| U7G G9C C12U C13A | 1.3 |
| U7G G9A U10G U11G | 1.09 |
| U7G G9A U10G U11C | 1.04 |
| U7G G9A U10G U11A | 1.05 |
| U7G G9A U11A C12A | 1.12 |
| U7G G9A U11A C12G | 1.21 |
| U7G G9A U11A C12U | 1.41 |
| U7G G9C U10C U11C C12G C13A | 1.08 |
| U7G G9C U10C U11C C12G C13G | 1.05 |
| U7G G9C U10C U11C C12G C13U | 1.06 |
| U7G G9A U10G U11G C12A C13U | 1.1 |
| U7G G9A U10G U11G C12A C13G | 1.09 |
| U7G G9A U10G U11G C12A C13A | 1.03 |
| U7G G9C U10C U11G C12U | 1.57 |
| U7G G9C U10C U11G C12A | 1.14 |
| U7G G9C U10C U11G C12G | 1.1 |
| U7G G9A U11A C12U C13A | 1.16 |
| U7G G9A U11A C12U C13G | 1.17 |
| U7G G9A U11A C12U C13U | 1.19 |
| U7G G9C U10C U11G C12G C13U | 1.08 |
| U7G G9C U10C U11G C12G C13A | 1.09 |
| U7G G9C U10C U11G C12G C13G | 1.08 |
| U7G G9C U10G U11A C12U C13G | 1.28 |
| U7G G9C U10G U11A C12U C13A | 1.17 |

| Variant | aptazyme ON/OFF ratio |
| --- | --- |
| U7G G9C U10G U11A C12U C13U | 1.23 |
| U7G G9C U10C U11A C12G C13U | 1.31 |
| U7G G9C U10C U11A C12G C13G | 1.2 |
| U7G G9C U10C U11A C12G C13A | 1.13 |
| U7G G9C U10G U11C C12U C13G | 1.26 |
| U7G G9C U10G U11C C12U C13U | 1.19 |
| U7G G9C U10G U11C C12U C13A | 1.29 |
| U7G G9C U10A U11C C13A | 1.21 |
| U7G G9C U10A U11C C13U | 1.14 |
| U7G G9C U10A U11C C13G | 1.09 |
| U7G G9A U10C U11C C13A | 1.04 |
| U7G G9A U10C U11C C13U | 1.02 |
| U7G G9A U10C U11C C13G | 1.03 |
| U7G G9A U10C U11C C12U C13A | 1.05 |
| U7G G9A U10C U11C C12U C13G | 1.04 |
| U7G G9A U10C U11C C12U C13U | 1.07 |
| U7G G9C U10G U11A C13G | 1.16 |
| U7G G9C U10G U11A C13U | 1.24 |
| U7G G9C U10G U11A C13A | 1.18 |
| U7G G9C U10G U11A C12A C13G | 1.12 |
| U7G G9C U10G U11A C12A C13U | 1.17 |
| U7G G9C U10G U11A C12A C13A | 1.13 |
| U7G G9C U10C U11C C12A C13U | 1.03 |
| U7G G9C U10C U11C C12A C13A | 1.02 |

| Variant | aptazyme ON/OFF ratio |
| --- | --- |
| U7G G9C U10C U11C C12A C13G | 1.09 |
| U7G G9A U10G | 1.19 |
| U7G G9C U10A C12U C13A | 1.09 |
| U7G G9C U10A C12U C13G | 1.05 |
| U7G G9C U10A C12U C13U | 1.07 |
| U7G G9C U10C U11G C13G | 1.17 |
| U7G G9C U10C U11G C13A | 1.19 |
| U7G G9C U10C U11G C13U | 1.27 |
| U7G G9C U10A U11G C13A | 1.13 |
| U7G G9C U10A U11G C13U | 1.4 |
| U7G G9C U10A U11G C13G | 1.14 |
| U7G G9A U10G U11A C13A | 1.05 |
| U7G G9A U10G U11A C13G | 1.06 |
| U7G G9A U10G U11A C13U | 1.07 |
| U7G G9A U11A C12G C13A | 1.08 |
| U7G G9A U11A C12G C13U | 1.12 |
| U7G G9A U11A C12G C13G | 1.13 |
| U7G G9A U10G C13A | 1.11 |
| U7G G9A U10G C13G | 1.13 |
| U7G G9A U10G C13U | 1.12 |
| U7G G9A U10G U11A C12G C13A | 1.12 |
| U7G G9A U10G U11A C12G C13G | 1.11 |
| U7G G9A U10G U11A C12G C13U | 1.05 |
| U7G G9C U10C U11C C12U | 1.06 |

| Variant | aptazyme ON/OFF ratio |
| --- | --- |
| U7G G9C U10C U11C C12A | 1.03 |
| U7G G9C U10C U11C C12G | 1.14 |
| U7G G9C | 2.85 |
| U7G G9A U10G U11C C12U | 1.11 |
| U7G G9A U10G U11C C12A | 1.12 |
| U7G G9A U10G U11C C12G | 1.1 |
| U7G G9C U10A U11G C12U C13A | 1.18 |
| U7G G9C U10A U11G C12U C13G | 1.2 |
| U7G G9C U10A U11G C12U C13U | 1.26 |
| U7G G9C U10G U11C C12G C13G | 1.07 |
| U7G G9C U10G U11C C12G C13U | 1.21 |
| U7G G9C U10G U11C C12G C13A | 1.27 |
| U7G G9C C12G C13G | 1.26 |
| U7G G9C C12G C13A | 1.3 |
| U7G G9C C12G C13U | 1.43 |
| U7G G9A U10G U11C C12G C13A | 1.08 |
| U7G G9A U10G U11C C12G C13U | 1.1 |
| U7G G9A U10G U11C C12G C13G | 1.08 |
| U7G G9A U10G U11G C12A | 1.1 |
| U7G G9A U10G U11G C12G | 1.09 |
| U7G G9A U10G U11G C12U | 1.16 |
| U7G G9C U10C U11C C12U C13U | 1.11 |
| U7G G9C U10C U11C C12U C13A | 1.03 |
| U7G G9C U10C U11C C12U C13G | 1.07 |

| Variant | aptazyme ON/OFF ratio |
| --- | --- |
| U7G G9C U10A U11C C12U C13U | 1.18 |
| U7G G9C U10A U11C C12U C13A | 1.33 |
| U7G G9C U10A U11C C12U C13G | 1.19 |
| U7G G9A U10G U11A C12U | 1.07 |
| U7G G9A U10G U11A C12G | 1.07 |
| U7G G9A U10G U11A C12A | 1.09 |
| U7G G9A U11G C12U C13G | 1.11 |
| U7G G9A U11G C12U C13A | 1.09 |
| U7G G9A U11G C12U C13U | 1.2 |
| U7G G9C U10G C12U C13U | 1.13 |
| U7G G9C U10G C12U C13G | 1.38 |
| U7G G9C U10G C12U C13A | 1.24 |
| U7G G9C U10C U11A C13U | 1.25 |
| U7G G9C U10C U11A C13G | 1.22 |
| U7G G9C U10C U11A C13A | 1.24 |
| U7G G9C U10C U11A C12U | 1.4 |
| U7G G9C U10C U11A C12G | 1.31 |
| U7G G9C U10C U11A C12A | 1.46 |
| U7G G9A U10C U11C C12U | 1.07 |
| U7G G9A U10C U11C C12G | 1.17 |
| U7G G9C U10G U11A C12G C13G | 1.18 |
| U7G G9C U10G U11A C12G C13A | 1.14 |
| U7G G9C U10G U11A C12G C13U | 1.28 |
